Biological target: TNF (UniProt P01375 77-233)
Experiment: cell-based or functional assay

Chain of TNF (P01375 77-233 limits assumed): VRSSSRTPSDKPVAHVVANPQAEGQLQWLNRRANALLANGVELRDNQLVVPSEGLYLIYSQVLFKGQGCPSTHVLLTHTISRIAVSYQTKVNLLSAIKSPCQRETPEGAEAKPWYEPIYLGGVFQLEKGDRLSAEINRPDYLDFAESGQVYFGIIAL

B1: Tumor Necrosis Factor (TNF) Binding Protein II (receptor, human, UniProt P20333 25-213, looked up)
chain: AQVAFTPYAPEPGSTCRLREYYDQTAQMCCSKCSPGQHAKVFCTKTSDTVCDSCEDSTYTQLWNWVPECLSCGSRCSSDQVETQACTREQNRICTCRPGWYCALSKQEGCRLCAPLRKCRPGFGVARPGTETSDVVCKPCAPGTFSNTTSSTDICRPHQICNVVAIPGNASMDAVCTSTSPTRSMAPGA
Question: For B1, which “detectable cytotoxicity of rTNF in the presence of TBP-II against rTNF alone, days 2 to 9” value is on record?
Answer: 10 fold
